# B1: CsUGT72AM1 (Camellia sinensis) (protein)
# chain: MDSSNSKPHVALLSSPGIGHLIPVLELRKRLVANHGFHVTVFSVTTTTAPPPKPKTATTTTTLDLVDIFELHVDISGLVNPNAPFVERVGVTMRESLPILRQAISGMDPRPTTLVVDIFGTDAMKIADEFDMSKYVFITTSAWVFAFCVFVPTLDEEVEGEYVDLQEPVKIPGCNPVRVEDLVDPMLDRRSQQYFEFLRTCKGYLSFDGVLVNTWEDLERPTLKAFRENGLLKQVLKAPIYPIGPLVKRVGSSGSRSELLEWLDLQPCQSVLYVSFGSAGTVSAKQITELAWGLELSQQRFIWVLRPPMEKGGPHDLNDCDDVANYLPDGFLSRTHKLGLVVPTWAPQEEILGHRSVGGFLSHGGWNSSLESILSGVPMIMWPLYAEQKMNAAMVVEELEVGVRVVQLSEVVEREEIAKFVRMVIEGREGKAMRTRVKELQCSGERALIENGSSYESMCELARDFEMKLKY
# notes: cDNA in pMAL-c2X (MBP fusion), expressed in E. coli Novablue (DE3), purified
# Key:
# Settings in all cases: 5 mM UDP-glucose, phosphate buffer pH 7.5, 30 °C, 10 min
# purified protein = substrate: O=c1c(O)c(-c2cc(O)c(O)c(O)c2)oc2cc(O)cc(O)c12; assay: purified protein
# [1] = substrate: O=c1c(O)c(-c2ccc(O)c(O)c2)oc2cc(O)cc(O)c12; assay: glucosyltransferase assay of recombinant enzyme, HPLC; format: biochemical, Camellia sinensis
# [2] = substrate: O=c1c(O)c(-c2ccc(O)cc2)oc2cc(O)cc(O)c12; assay: as above; format: biochemical, Camellia sinensis
protein,measurement,setting,value
B1,Km,purified protein,113.15 µM
same,Km,[1],94.99 µM
same,Km,[2],71.81 µM

# Source: publication PMC5760735, “Isolation and Characterization of Key Genes that Promote Flavonoid Accumulation in Purple-leaf Tea (Camellia sinensis L.)” (Scientific Reports, 2018)
